The chains are these.
B1: 75110_01H18A (antibody, V domains shown)
VH: QVQLQQWGAGLLKPSETLSLTCAVYGGSFSGYYWSWIRQSPGKGLEWIGEINQSGSTNYNPSLKSRVTISVDTSKNQFSLKLSSVTAADTAVYYCARVINWFDSWGQGTLVTVSS
VL: DIQMTQSPSSVSASVGDRVTITCRASQGISSWLAWYQQKPGKAPKLLIYAASSFQSGVPSRFSGSGSGTDFTLTISSLQTEDFATYYCQQANSFPYTFGQGTRLEIK
notes: Tested as antibody purified from AlivaMab Mouse hybridoma supernatant (captured by anti-mouse IgG Fc)
B2: 75110_04P08A (antibody, V domains shown)
VH: QVQLQQWGAGLLKPSETLSLTCAVYGGSLSGYYWSWIRQSPGKGLEWIGEINQSGSTNYNPSLKSRVTISVDTSKDQFSLRLTSVTAADTAVYYCTRVLNWFDPWGRGTLVTVSS
VL: DIQMTQSPSSVSASVGDRVTLTCRASQDISNWLAWYQQKPGKAPKLLIYAASSLQSGVPSRFSGSGSGTDFTLTISSLQTEDFATYYCQQANSFPYTFGQGTKLEIK
notes: as for B1
B3: 75110_05B13A (antibody, V domains shown)
VH: QVLLEQWGAGLLKPSETLSLTCAVYGGSFSGYYWTWIRQPPGKGLEWIGEINHRGSTNYNPSLKSRVTISIDTSKNQFSLKVKSVTAADTAMYYCTRPDSNWFDPWGQGTLVTVSS
VL: DIQMTQSPSSVSASVGDRVTITCRASQDISNWLAWYQQKPGKAPKLLIFAASSLQSGVPSRFSGSGSGTDFTLTISSLQPEDFATYYCQQANSFPLTFGGGTKVEIK
notes: as for B1
B4: 75110_03C01A (antibody, V domains shown)
VH: QVQLQQWGAGLLKPSETLSLTCAVYGGSFSGYYWSWIRQSPGKGLEWIGEINQSGSTNYNPSLKSRVTISVDTSKDQFSLKLSSVTAADTAVYYCARVINWFDSWGQGSLVTVSS
VL: DIQMTQSPSSVSASVGDRVTITCRASQGISSWLAWYQQKPGNAPKLLIYDASSFQSGVPSRFSGSGSGTDFTLTISSLQTEDFATYYCQQANSFPYTFGQGTKLEIK
notes: as for B1
B5: 75110_02E08A (antibody, V domains shown)
VH: QVQLQESGPGLVKPSETLSLTCTVSGGSISTYYWTWIRQPAGKGLEWIGRVYTSGDTNYNPSLKSRVAMSLDTSKNQFSLKLSSVTAADTAVYYCARDSGALYSWNYGDAFDIWGQGTMVTVSS
VL: DIQMTQSPSAMSASVGDRVTITCRASQDISNYLAWFQQKPGKVPKRLIYAASSLQSGVPSRFSGSGSGTEFTLTISSLQPEDFATYYCLQHNSYPRTFGQGTKVEIK
notes: as for B1
B6: 75110_03I08A (antibody, V domains shown)
VH: QVQLQESGPGLVKPSETLSLTCTVSGGSISSYYWSWIRQPPGKGLEWIGYIYYSGSTNYNPSLKSRVTISVDTSKNQFSLKLSSVTAADTAVYYCAREGEQWFYGLDVWGQGTTVTVSS
VL: EIVLTQSPGTLSLSPGERATLSCRASQSVSSTYLAWYQQKPGQAPRLLIYGSSSRATGIPDRFSGSGSGTDFTLTISRLEPEDFAVYYCQQYGNSFPITFGQGTRLEIK
notes: as for B1
B7: 75110_02E22A (antibody, V domains shown)
VH: QVQLQESGPGLVKPSETLSLTCTVSGGSISSFYWSWIRQPAGKGLEWIGRIYTSGSTNYNPSLKSRVTMSVDTSKNQFSLKLSSVTAADTAVYYCARELEKRNYYGMDVWGQGTTVTVSS
VL: DIQMTQSPSSLSASVGDRVTITCQASHDISNYLNWYQQKPGKAPKLLIFDASTLETGVPSRFSGSGSGTYFTFTIRSLQPEDIATYYCQQYDSLPLTFGGGTKVEIK
notes: as for B1
B8: 75110_04H17A (antibody, V domains shown)
VH: QVQLQESGPGLVKPSETLSLTCTVSGGSISTYYWSWIRQSAGKGLEWIGRIYTSERPNYNPSLKSRVTMSVDTSKNQFSLKLNSVSAADTAVYYCARELERPYYYGMDVWGQGTTVTVSS
VL: DVQMTQSPSSLSASVGGRVTITCQASQDISNYLNWYQQKPGKAPKLLIYYASNLETGVPSRFSGSGSGTDFTFTISSLQPEDFATYYCQQYDNLPLTFGGGTKVEIK
notes: as for B1
B9: 75110_04D20A (antibody, V domains shown)
VH: QVQLQESGPGLVKPSETLSLTCTVSNGSISDYYWSWIRQPAGKGLEWIGRIYTSGSTNYNPSLKSRITMSVDTSKNQFSLELSSVTAADTAVYYCARELERYYFYGVDVWGQGTTVTVSS
VL: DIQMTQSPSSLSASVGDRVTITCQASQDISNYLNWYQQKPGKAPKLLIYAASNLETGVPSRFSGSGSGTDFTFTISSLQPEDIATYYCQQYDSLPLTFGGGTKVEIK
notes: as for B1
B10: 75110_03I23A (antibody, V domains shown)
VH: QVQLQESGPGLVKPSETLSLTCTASGGSITSYYWNWIRQPAGKGLEWIGRIYTSGSTNYNPSLKSRVTMSVDTSKNQFSLKLSSVTAADTAVYYCARDPGYSDAFNIWGQGTMVTVSS
VL: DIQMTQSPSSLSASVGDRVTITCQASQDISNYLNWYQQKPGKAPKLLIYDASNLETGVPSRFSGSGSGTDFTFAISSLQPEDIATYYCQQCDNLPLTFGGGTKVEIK
notes: as for B1
B11: 75110_02K11A (antibody, V domains shown)
VH: QVQLQESGPGLVKPSQTLSLTCTVSGGSISSGFYYWTWIRQHPGKGLEWIGYISYSGNTYYNPSFKSRLTISVDTSKSQFSLKLSSVTAADTAVYYCARDRPSNFDAFDIWGQGTMVTVSS
VL: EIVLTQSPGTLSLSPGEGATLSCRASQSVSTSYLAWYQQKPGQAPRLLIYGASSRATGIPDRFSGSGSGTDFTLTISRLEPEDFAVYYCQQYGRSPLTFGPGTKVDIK
notes: as for B1
B12: 75110_04G16A (antibody, V domains shown)
VH: QVQLQESGPGLVKPSQTLSLTCTVSGDSISSGYYYWSWIRQHPGKGLEWIGYISYSGSTYYNPSLKSRLTISVNTSKNQFSLKLSSLTAADTAVYYCARDRPSNFDAFDIWGQGTMVTVSS
VL: EIVLTQSPGTLSLSPGERATLSCRASQSVGSTYLAWYQQKPGQAPRLLIYGAFSRATGIPDRFSGSGSGTDFTLTISRLEPEDFAVYYCQQYGSSPLTFGPGTKVDIK
notes: as for B1
B13: 75110_01L08A (antibody, V domains shown)
VH: QVQLQESGPGLVKPSETLSLTCTVSGGSISHYYWSWIRQPPGKGLEWIGYIHYSGTTNYNPSLKSRVTISVDTSKNQLSLKLRSVTAADTAVYYCARDQGFSSGGMDVWGQGTTVTVSS
VL: not shown
notes: as for B1
B14: 75110_05F19A (antibody, V domains shown)
VH: EVQLVESGGGLVQPGGSLRLSCAASGFTFSNYDVHWVRQPTGKGLEWVSTIGTAGDTYYPGSVKGRFTISRENAKNSLYLQMNSLRAGDTAVYYCARGGYDYYGLDVWGQGTTVTVSS
VL: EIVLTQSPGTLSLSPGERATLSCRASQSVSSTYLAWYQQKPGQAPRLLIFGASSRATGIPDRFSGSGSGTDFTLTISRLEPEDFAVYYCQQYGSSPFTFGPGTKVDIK
notes: as for B1
B15: 75110_01J09A (antibody, V domains shown)
VH: EVQLVESGGGLVQPGGSLRLSCVASGFTFSSYWMSWVRQAPGKGLEWVANTKEDGSDKYYVDSVKGRFTICRDNAKNSLYLQMNSLRAEDTAVYYCAREGGQWLALDYWGQGTLVTVSS
VL: DIQMTQSPSSVSASVGDRVTINCRASQGISSWLAWYQQKPGKAPNLLIFGASSLQSGVPSRFSGSGFGTDFSLTITTLQPEDFATYHCQQANSFPWTFGQGTKVEIK
notes: as for B1
B16: 75110_04G02A (antibody, V domains shown)
VH: not shown
VL: DIVMTQSPDSLAVSLGERATINCKSSQSVLYSSNNKNYLAWYQQKPGQPPKLLFYWASARESGVPDRFSGSGSGTDFTLTISSLQAEDVALYYCQQYFGSFPTFGQGTKLEIK
notes: as for B1
B17: 75110_04B08A (antibody, V domains shown)
VH: QVQLVESGGGVVQPGRSLRLSCTASGFNFINYGIHWVRQAPGKGLEWVTIIWYDGSKKYYADSVKGRFAISRDNSKNTLYLQMNSLRAEDTAVYYCAREDDWNDGLAYWGQGTLVTVSS
VL: AIQMTQSPSSLSASVGDRVTITCRASQDIRNDLGWYQQKPGKAPNLLIYAASNLQSGVPSRFSGSGSGTDFTLTISSLQPEDFATYYCLQDSNYPRTFGQGTKVEIK
notes: as for B1
B18: 75110_05A11A (antibody, V domains shown)
VH: EVQLVESGGGLVKPGGSLTLSCAASGFTFSNTWMSWVRQAPGKGLEWVGRIKSKIDGGTTDYAAPVKGRFTISRDDSKNTLYLQMNSLKTEDTAVYYCTTSGTYSSGWGLFDYWGQGTLVTVSS
VL: DIQMTQSPSSLSASVGDRVTITCQASQDISNYLNWYQQKPGKAPKLLIYDTSNLEAGVPSRFSGSGSGTHFTLTISSLQPEDIATYYCQQYDNLPFTFGGGTRVEIK
notes: as for B1
B19: 75110_02I16A (antibody, V domains shown)
VH: QVQLQQWGAGLLKPSETLSLTCDVYGGSFSGYYWTWIRQPPGKGLEWIGEINHSGTTNSNPSLKSRVTISVDTSKSQFSLRLSSVTAADTAVYFCTRELNWFDPWGQGTLVTVSS
VL: DIQMTQSPSSVSASVGDRVTITCRASQDIANWLAWYQQKPGKAPQLLIYAASSLLGGVPSRFSGSGSGADFTLTISSLHPEDFATYYCQQANSFPYTFGQGTKLEIK
notes: as for B1

For the test, the target named is T1, Recombinant human CD4 (R&D Systems, Cat. 10327-CD) (human, UniProt P01730 26-390, limits assumed).
T1 construct: Soluble analyte in the Octet assay
The test can be described thus: BLI Octet, mAb on anti-mouse Fc sensor, CD4 100/50/25 nM, 1:1 global fit.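 Further: antibodies loaded at 10 µg/mL, an unrelated mouse-derived antibody served as internal reference control, association and dissociation phases fitted after Savitzky-Golay smoothing.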 On the technique in general: BLI is a label-free optical method that tracks binding on a fibre tip over time.
As to B1, the Kd (as a rule, the concentration at which binding is half-saturated) was found to be 16 nM; the Response is 0.23; the koff (commonly a measure of how fast the partners let go of each other) worked out at 0.0016 s⁻¹; the kon (usually a measure of how fast the partners come together) amounted to 99000 M⁻¹ s⁻¹.

For the molecule B2, the Kd was determined as 3.6 nM, the Response worked out at 0.23, the koff came out at 0.0005 s⁻¹ and the kon amounted to 140000 M⁻¹ s⁻¹.

On to B3, for which the Kd is 5.4 nM, the Response came to 0.28, the koff worked out at 0.00058 s⁻¹ and the kon is 110000 M⁻¹ s⁻¹.

Consider B4, for which the Kd stood at 3 nM, the Response is 0.23, the koff was 0.0004 s⁻¹ and the kon was found to be 140000 M⁻¹ s⁻¹.

B5: the Kd worked out at 2.2 nM, the Response came out at 0.11, the koff worked out at 0.00061 s⁻¹ and the kon was determined as 280000 M⁻¹ s⁻¹.

As for B6, the Kd turned out to be 8.8 nM, the Response came out at 0.14, the koff turned out to be 0.0011 s⁻¹ and the kon was determined as 130000 M⁻¹ s⁻¹.

Take B7: the Kd is 50 nM, the Response is 0.16, the koff was 0.0031 s⁻¹ and the kon is 63000 M⁻¹ s⁻¹.

Turning to B8, the Kd is 0.25 nM, the Response stood at 0.15, the koff turned out to be 1.8e-05 s⁻¹ and the on-rate constant (kon) is 73000 M⁻¹ s⁻¹.

As for B9, the Kd stood at 8.9 nM, the Response came to 0.14, the koff was 0.0008 s⁻¹ and the kon came out at 90000 M⁻¹ s⁻¹.

With B10, the Kd was less than 0.001 nM, the Response came to 0.18, the koff is less than 1e-07 s⁻¹ and the kon amounted to 80000 M⁻¹ s⁻¹.

B11: the Kd stood at 19 nM, the Response was 0.11, the koff is 0.0014 s⁻¹ and the kon turned out to be 74000 M⁻¹ s⁻¹.

B12: the Kd came out at 5.3 nM, the Response amounted to 0.23, the koff stood at 0.00047 s⁻¹ and the kon was 89000 M⁻¹ s⁻¹.

As for B13, the Kd was 4.1 nM, the Response came to 0.19, the koff came out at 0.0016 s⁻¹ and the kon stood at 390000 M⁻¹ s⁻¹.

B14: the Kd was less than 0.001 nM, the Response stood at 0.05, the koff is less than 1e-07 s⁻¹ and the kon was determined as 19000 M⁻¹ s⁻¹.

In the case of B15, the Kd is 130 nM, the Response was 0.12, the koff was 0.0048 s⁻¹ and the kon was 37000 M⁻¹ s⁻¹.

For the molecule B16, the Kd was found to be 16 nM, the Response turned out to be 0.17, the koff turned out to be 0.0015 s⁻¹ and the kon came out at 90000 M⁻¹ s⁻¹.

For the molecule B17, the Kd turned out to be 17 nM, the Response amounted to 0.25, the koff amounted to 0.0037 s⁻¹ and the kon worked out at 220000 M⁻¹ s⁻¹.

On to B18, for which the Kd worked out at 18 nM, the Response came out at 0.27, the koff amounted to 0.0018 s⁻¹ and the kon came out at 97000 M⁻¹ s⁻¹.

Take B19: the Kd is 3.5 nM, the Response turned out to be 0.22, the koff came out at 0.0004 s⁻¹ and the kon is 120000 M⁻¹ s⁻¹.

(Values after patent US20220112288A1 (published 2022).)
